Data on 18 sequences can be found in a protein production outcome set (Wang et al. 2014).

The series can be described thus: label from the status in PepcDB records.

As for “SLGVQPPNFSWVLPGRLAGLALPRLPAHYQFLLDLGVRHLVSLTERGPPHSDSCPGLTLHRLRIPDFCPPAPDQIDRFVQIVDEANARGEAVGVHCALGFGRTGTMLACYLVKERGLAAGDAIAEIRRLRPGSIETYEQEKAVFQFYQRTK”, the protein production result is on record as “not failed”.

Consider “SLLGQKSQRYKAEEGLQAQGEAPGLMDVQIPTAEEQKAASSSSTLIMGTLEEVTDSGSPSPPQSPEGASSSLTVTDSTLWSQSDEGSSSNEEEGPSTSPDPAHLESLFREALDEKVAELVRFLLRKYQIKEPVTKAEMLESVIKNYKNHFPDIFSKASECMQVIFGIDVKEVDPAGHSYILVTCLGLSYDGLLGDDQSTPKTGLLIIVLGMILMEGSRAPEEAIWEALSVMGLYDGREHSVYWKLRKLLTQEWVQENYLEYRQAPGSDPVRYEFLWGPRALAETSYVKVLEHVVRVNARVRISYPSLHEEALGEEKGV”, for which the protein production entry is recorded as “not failed”. With “SLLSVDMEMQIPFHDVDSMGITWHGNYLRYFEIARCKLLDELGYNYRQMQASNYAWPIIDLQIKYVKTSTFEQKITVRAELVEWENRLKINYQIRDVETGARITKGYTIQAAVDMCTQELCFVTPEVFRDKIATLFAKVE”, the protein production entry was “failed”. With “SLSLIRKKGFYKQDVNKTAWELPKTYVSPTHVGSGAYGSVCSAIDKRSGEKVAIKKLSRPFQSEIFAKRAYRELLLLKHMQHENVIGLLDVFTPASSLRNFYDFYLVMPFMQTDLQKIMGLKFSEEKIQYLVYQMLKGLKYIHSAGVVHRDLKPGNLAVNEDCELKILDFGLARHADAEMTGYVVTRWYRAPEVILSWMHYNQTVDIWSVGCIMAEMLTGKTLFKGKDYLDQLTQILKVTGVPGTEFVQKLNDKAAKSYIQSLPQTPRKDFTQLFPRASPQAADLLEKMLELDVDKRLTAAQALTHPFFEPFRDPEEETEAQQPFDDSLEHEKLTVDEWKQHIYKEIVNFSPI”, the protein production entry was “not failed”.

Take “SLSLRPSPRLLCTATKQKNSGQNLEEDMGQSEQKADPPATEKTLLEEKVKLEEQLKETVEKYKRALADTENLRQRSQKLVEEAKLYGIQAFCKDLLEVADVLEKATQCVPKEEIKDDNPHLKNLYEGLVMTEVQIQKVFTKHGLLKLNPVGAKFDPYEHEALFHTPVEGKEPGTVALVSKVGYKLHGRTLRPALVGVVKEA”: the protein production result was “not failed”. With “SLTGEESDTLRKIVLEECLPNQQQNQNPSPCAEVKPNAGYVVLKDLNGPLQYLLMPTYRINGTESPLLTDPSTPNFFWLAWQARDFMSKKYGQPVPDRAVSLAINSRTGRTQNHFHIHISCIRPDVREQLDNNLANISSRWLPLPGGLRGHEYLARRVTESELVQRSPFMMLAEEVPEAREHMGSYGLAMVRQSDNSFVLLATQRNLLTLNRASAEEIQDHQCEILR”, the protein production result is “not failed”. In the case of “SLTMDVPPTIHVPLPPTSYPAFDAAIFTDIGGRKHQEDRFTLCPQLVPGRDDCAFFGVFDGTVGDFASENVKDLVVPQLISSPAWQEVTEMLRSDVPATEVDEKLPQLLDQAVDDMYKNADNELVKMCEQLNKDYASSTSVTAVLAKGFVAVGHLGDSRIAMGVETPNGLNCEFLTVDHKPDMPHEKLRIMRNGGSVEYLHNHNNKPFIRGGDFSFRKSRGEQPMQLQYSRAFGGKDLKMYGLSNQPDVRVVRVTPQHRVMILATDGLWDVMSAAQAVEIAMQARQEGRNPAQALVEMTLAEQQSRNQSADNITAMTVFFKKTD” it was “not failed”; in that of “SNDQYHRAARDGYLELLKEATRKELNAPDEDGMTPTLWAAYHGNLESLRLIVSRGGDPDKCDIWGNTPLHLAASNGHLHCLSFLVSFGANIWCLDNDYHTPLDMAAMKGHMECVRYLDSIAAKQSSLNPKLVGKLKDKAFREAERRIRECAKLQRRHHERMERRYRRELAERSDTLSFSSLTSSTLSRRLQHLALGSHLPYSQATLHGTARGKTKMQKKLERRKQGGEGTFKVSEDGRKSARSLSGLQLGSDVMFVRQGTYANPKEWGRAPLRDMFLSDEDSVSRATLAAEPAHSEVSTDSGHDSLFTRPGLGTMVFRRNYLSSGLHGLGREDGGLDGVGAPRGRLQSSPSLDDDSLGSANSLQDRSCGEELPWDELDLGLDEDLEPETSPLETFLASLHMEDFAALLRQEKIDLEALMLCSDLDLRSISVPLGPRKKILGAVRRRRQAMERPPALEDTEL”, “not failed”.

For the sequence “SNQEKLQRTMIHFNNPEVQAFLAVNTFTITGHGETKQLTEMLRSVLNQLAAVSLTSLRRLAEALPKQSVDGKAPLATGEDDDDDEVPGIMENFDEASKNEAN”, the protein production result was “failed”. Consider “SNRLPDDYDPYAVEEPSDEEPALSSSEDEVDVLLHGTPDQKRKLIRECLTGESESSSEDEFEKEMEAELNSTMKTMEDKLSSLGTGSSSGNGKVATAPTRYYDDIYFDSDSEDEDRAVQVTKKKKKKQHKIPTNDELLYDPEKDNRDQAWVDAQRRGYHGLGPQRSREQQPVPNSDAVLNCPACMTTLCLDCQRHESYKTQYRAMFVMNCSINKEEVLRYKASENRKKRRVHKKMRSNQEDAAEKAETDVEEIYHPVMCTECSTEVAVYDKDEVFHFFNVLASHS”, for which the protein production result was “not failed”.

As to “SPARPFTVRAPASSANLGPGFDSLGLSVPLYTTLRVTPQDKAEVVPLGTELADTPADESNYVYRAMTLAAKRAGRTLPPARVEIETEVPLARGLGSSAAALVAGVVAGNELLGRPLDDETVLDVTAREEGHPDNVAPALFGGIVVATLDKLGTHY”, the protein production entry was “failed”. In the case of “SPINPYKDHMSVLKAYYAMNMEPNSDELLKISIAVGLPQEFVKEWFEQRKVYQYSNSR” it was “not failed”; in that of “SPKMDVHETDHEVILECDIPGLESKEDLQIDVEPRSVRIEGRIKRSKEVHDERFYRREREIGHFRRVVPLPAEVAEDDIRAAYRNGVLEVRMRKRLDDRRRTIDVEFH”, “failed”.

For “SQIYASDGETELARIVPPEGNRQMVTIDQVPDTVKNAVVAAEDREFYTNPGFSITGYARAALGVITGDSSAGGGSTITQQYVKKAVVGDERSLIRKAKELVYSAKMANEWSKDEVLEAYLNTVYFGRNAYGVQAAAHAFFDKPVEELTAAEGAVLAASIQLPSQLDPWTNP”, the protein production entry is “failed”. Consider “SREPVDILREQKINAEWALKQQSDKLAAQFDNMDDAYLRERKQDMLQVVRRIHNNLIGQGNELEVADNLFDETVLIANDLSPADTVLFKEQR”, for which the protein production result is reported as “failed”. In the case of “SRFLVLGGAGSIGQAVTKEIFKRNPKKLHVVDISENNMVELVRDIRSSFGYIDGDFQTFALDIGSLEYDAFIKADGKFDYVLNLSALKHVRSEKDPYTLMRMIDVNVFNTDKTIQQSIDAGAKKYFCVSTDKAANPVNMMGASKRIMEMFLMRKSEQIAISTARFANVAFSDGSLLHGFNQRIQKRQPIVAPND” it was “failed”; in that of “SRIEERKAIIGLYNYAHEMTHGASDREYPRLGQMIVDYENPLKKMMEEFVPHSKSLSDALISLQMVYPRRNLSADQWRNAQLLSLISAPSTMLNPAQSDTMPCEYLSLDAMEKWIIFGFILCHGILNTDATALNLWKLALQSSSCLSLFRDEVFHIHKAAEDLFVNIRGYNKRINDIRECKEAAVSHAGSMHRERRKFLRSALKELATVLSDQPGLLGPKALFVFMALSFARDEIIWLLRHADNMPKKSADDFIDKHIAELIFYMEELRAHVRKYGPVMQRYYVQYLSGFDAVVLNELVQNLSVCPEDESIIMSSFVNTMTSLSVKQVEDGEVFDFRGMRLDWFRLQAYTSVSKASLGLADHRELGKMMNTIIFHTKMVDSLVEMLVETSDLSIFCFYSRAFEKMFQQCLELPSQSRYSIAFPLLCTHFMSCTHELCPEERHHIGDRSLSLCNMFLDEMAKQARNLITDICTEQCTLSDQLLPKHCAKTISQAVN”, “failed”.

As for “SRLPKSPPYTAFLGNLPYDVTEESIKEFFRGLNISAVRLPREPSNPERLKGFGYAEFEDLDSLLSALSLNEESLGNKRIRVDVADQAQDKD”, the protein production result is “not failed”.
